Test results as given in patent publication US20240158512A1 (TRUEBINDING, published 2024).
“And” between values parts separate entries of the source, which are not always exact repeats. Equal values may be shown once.

Legend:
Galectin-3 [1] = biological target: T1, Galectin-3 (UniProt P17931 1-250, limits assumed); test: BLI; after 40 C for 7 days
T1 construct: Target of the anti-Gal3 antibody TB006; also called Gal3; GAL3

Galectin-3 [2] = biological target: T1, Galectin-3; test: BLI; after 4 C for 6 months
Galectin-3 [3] = biological target: T1, Galectin-3; test: BLI; after 40 C for 14 days
Galectin-3 [4] = biological target: T1, Galectin-3; test: BLI; after 25 C for 3 months
Galectin-3 [5] = biological target: T1, Galectin-3; test: BLI; after 25 C for 6 months
Galectin-3 [6] = biological target: T1, Galectin-3; test: BLI; after 4 C for 18 months
Galectin-3 [7] = biological target: T1, Galectin-3; test: BLI; after 3 freeze/thaws, 25% vol. of container
Galectin-3 [8] = biological target: T1, Galectin-3; test: BLI; after 5 freeze/thaws, 25% vol. of container
Galectin-3 [9] = biological target: T1, Galectin-3; test: BLI; after 5 freeze/thaws, 50% vol. of container
Galectin-3 [10] = biological target: T1, Galectin-3; test: BLI; after 5 freeze/thaws, 100% vol. of container
Galectin-3 [11] = biological target: T1, Galectin-3; test: ELISA (Biological Activity); long-term stability 5 C, 0 months
Galectin-3 [12] = biological target: T1, Galectin-3; test: ELISA (Biological Activity); accelerated stability 25 C/60% RH, 1 month
Galectin-3 [13] = biological target: T1, Galectin-3; test: ELISA (Biological Activity); accelerated stability 25 C/60% RH, 0 months
Galectin-3 [14] = biological target: T1, Galectin-3; test: ELISA blocking assay; TB006 diluted to 0.31 mg/mL in 0.9% NaCl, 25 C, 4 h; blocked partner not named
Galectin-3 [15] = biological target: T1, Galectin-3; test: ELISA blocking assay; TB006 diluted to 0.31 mg/mL in 0.9% NaCl, 25 C, 0 h; blocked partner not named; Bag #1, 0 h
Galectin-3 (Gal3) [16] = biological target: T2, Galectin-3 (Gal3) (UniProt P17931 1-250, limits assumed); test: BLI; 20 mg/mL DS after 3 freeze/thaws
T2 construct: Target of TB006
T2 sequence (P17931 whole entry): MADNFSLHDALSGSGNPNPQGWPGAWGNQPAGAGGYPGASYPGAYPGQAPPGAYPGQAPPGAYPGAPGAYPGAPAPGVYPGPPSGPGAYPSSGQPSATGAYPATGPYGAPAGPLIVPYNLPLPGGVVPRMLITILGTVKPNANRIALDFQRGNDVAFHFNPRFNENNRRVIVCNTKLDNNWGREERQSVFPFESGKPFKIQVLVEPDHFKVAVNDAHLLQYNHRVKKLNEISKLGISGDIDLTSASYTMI
Procedure, shortened: (§1)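 Galectin-3 binding is reported as the dissociation constant (Kd), measured by biolayer interferometry. Samples were collected at time zero or after agitation, repeated freeze-thaw cycles, or storage at set temperatures, including 40° C and cryogenic storage.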

Galectin-3 (Gal3) [17] = biological target: T2, Galectin-3 (Gal3); test: BLI; 50 mg/mL DS after 5 freeze/thaws
Galectin-3 (Gal3) [18] = biological target: T2, Galectin-3 (Gal3); test: BLI; 20 mg/mL DS after 4 C for 1 month
Galectin-3 (Gal3) [19] = biological target: T2, Galectin-3 (Gal3); test: BLI; 50 mg/mL DS after 4 C for 1 month
Galectin-3 (Gal3) [20] = biological target: T2, Galectin-3 (Gal3); test: BLI; 20 mg/mL DS after 25 C for 14 days
Procedure, shortened: as §1

Galectin-3 (Gal3) [21] = biological target: T2, Galectin-3 (Gal3); test: BLI; 20 mg/mL DS after 40 C for 14 days
Galectin-3 (Gal3) [22] = biological target: T2, Galectin-3 (Gal3); test: BLI; 20 mg/mL DS after 40 C for 21 days
Procedure, shortened: as §1

Galectin-3 (Gal3) [23] = biological target: T2, Galectin-3 (Gal3); test: BLI; 50 mg/mL DS after 40 C for 14 days
Galectin-3 (Gal3) [24] = biological target: T2, Galectin-3 (Gal3); test: BLI; 50 mg/mL DS after 40 C for 21 days
Galectin-3 (Gal3) [25] = biological target: T2, Galectin-3 (Gal3); test: BLI; 20 mg/mL DS after -80 C for 1 month
Procedure, shortened: as §1

Galectin-3 (Gal3) [26] = biological target: T2, Galectin-3 (Gal3); test: BLI; 50 mg/mL DS after -80 C for 1 month
Galectin-3 (Gal3) [27] = biological target: T2, Galectin-3 (Gal3); test: BLI; 50 mg/mL DS after 25 C for 3 months
Galectin-3 (Gal3) [28] = biological target: T2, Galectin-3 (Gal3); test: BLI; 50 mg/mL DS after 4 C for 12 months
Galectin-3 (Gal3) [29] = biological target: T2, Galectin-3 (Gal3); test: BLI; 20 mg/mL DS after -80 C for 6 months
Procedure, shortened: as §1

Galectin-3 (Gal3) [30] = biological target: T2, Galectin-3 (Gal3); test: BLI; 50 mg/mL DS after -80 C for 3 months
Galectin-3 (Gal3) [31] = biological target: T2, Galectin-3 (Gal3); test: BLI; 50 mg/mL DS after -80 C for 9 months
Galectin-3 (Gal3) [32] = biological target: T2, Galectin-3 (Gal3); test: BLI; 50 mg/mL DS after agitation for 1 day

T1 sequence (P17931 whole entry): as above

B1: TB006 (antibody, human IgG4 S228P, kappa, V domains shown)
VH: QVQLVQSGAEVKKPGASVKVSCKASGYSFTNYYMHWVRQAPGQRLEWMGWIYPGSGNTNYNEKFQGRVTITADTSASTAYMELSSLRSEDTAVYYCSTAPGGFDVWGQGTTVTVSS
VL: DIVMTQTPLSLSVTPGQPASISCKSSKSLLHSDGITYLYWYLQKPGQSPQLLIYRMSNLASGVPDRFSGSGSGTDFTLKISRVEAEDVGVYYCAQMLEFPLTFGQGTKLEIKR
notes: Tested as formulated drug substance or drug product in 20 mM L-histidine, 5 mM methionine, 100 mM NaCl, 0.02% polysorbate 80, pH 5.8, or diluted in 0.9% saline; also called 4A11.H3L1; IMT006a
Galectin-3 [1]
  Kd: 2.4 nM
Galectin-3 [2]
  Kd: 2.3 nM
Galectin-3 [3]
  Kd: 2.5 nM
Galectin-3 [4]
  Kd: 3.3 nM
Galectin-3 [5]
  Kd: 2.6 nM
Galectin-3 [6]
  Kd: 2.1 nM
Galectin-3 [7]
  Kd: 2.8 nM
Galectin-3 [8]
  Kd: 2.9 nM
Galectin-3 [9]
  Kd: 3.1 nM
Galectin-3 [10]
  Kd: 2.6 nM
Galectin-3 [11]
  IC50: 2.5 µg/mL
Galectin-3 [12]
  IC50: 1.8 µg/mL
Galectin-3 [13]
  IC50: 2.5 µg/mL
Galectin-3 [14]
  IC50: 1.35 µg/mL and 1.41 µg/mL
Galectin-3 [15]
  IC50: 1.01 µg/mL

B2: TB006 (antibody, human IgG4 S228P, kappa, V domains shown)
VH: B1 VH
VL: B1 VL
notes: Full antibody tested as drug substance (DS) in 20 mM L-histidine, 5 mM methionine, 100 mM NaCl, 0.02% polysorbate-80, pH 5.8; also called 4A11.H3L1; IMT006a
Galectin-3 (Gal3) [16]
  Kd: 3.3 nM
Galectin-3 (Gal3) [17]
  Kd: 2.6 nM
Galectin-3 (Gal3) [18]
  Kd: 3.7 nM
Galectin-3 (Gal3) [19]
  Kd: 2.1 nM
Galectin-3 (Gal3) [20]
  Kd: 2.7 nM
Galectin-3 (Gal3) [21]
  Kd: 2.9 nM
Galectin-3 (Gal3) [22]
  Kd: 2.6 nM
Galectin-3 (Gal3) [23]
  Kd: 2.7 nM
Galectin-3 (Gal3) [24]
  Kd: 3 nM
Galectin-3 (Gal3) [25]
  Kd: 3.6 nM
Galectin-3 (Gal3) [26]
  Kd: 2.3 nM
Galectin-3 (Gal3) [27]
  Kd: 2.5 nM
Galectin-3 (Gal3) [28]
  Kd: 3.7 nM
Galectin-3 (Gal3) [29]
  Kd: 2.7 nM
Galectin-3 (Gal3) [30]
  Kd: 2.5 nM
Galectin-3 (Gal3) [31]
  Kd: 2.8 nM
Galectin-3 (Gal3) [32]
  Kd: 3.8 nM
